Data published in US20090311267A1 (UNIVERSITY OF WURZBURG, published 2009).
“And” between values parts separate entries of the source, which are not always exact repeats. Equal values may be shown once.

Assays:
[1] = target: human platelet glycoprotein GPIb (on human platelets) (human, UniProt P07359 17-652); assay: cell-based or functional assay
[2] = target: T1, (1-289) recombinant (r) GPIbα fragment expressed by Chinese hamster ovary cells (human, UniProt P07359 17-305); assay: ELISA: inhibition of ristocetin (300 µg/ml)-induced binding of vWF to rGPIbα captured on 2D4
T1 construct: they seem to count on the mature chain, not on the precursor; Fragment obtained from Meyer et al; also called rGPIb-fragment; recombinant GPIbα fragment (His1-Val289)

[3] = target: T1, (1-289) recombinant (r) GPIbα fragment …; assay: ELISA: inhibition of botrocetin (0.5 µg/ml)-induced binding of vWF to rGPIbα captured on 2D4

B1: 6B4 Fab fragments (Fab, V domains shown)
VH: QVQLQESGPGLVAPSQSLSITCTVSGISLNRYGVHWVRQPPGKGLEWLGVIWTGGSTNYNSALMSRLSISKDNSKSQVFLKMNSLQTDDTAMYYCARDRSTMITAYAMDYWGQGTTVTVSS
VL: DIELTQSPAIMSASPGEKVTMTCSASSSVNYMHWFQQESGTFPKRRIYDTSKLASGVPARLSGSGSGTEFTLEISRVKAEDVGVYYCQQLVEYPLTFGAGTKLELK
IC50 of botrocetin-(0.5 µg/ml) induced human platelet agglutination [1]: 2 µg/ml and 40 nmol/L | IC50 of ristocetin-(1 mg/ml) induced human platelet agglutination [1]: 1.2 µg/ml and 24 nmol/L | IC50 [2]: 1.8 µg/mL and 36 nM | IC50 [3]: 2.5 µg/mL and 50 nM
